In assay [1] the target is T1, human mesothelin (MSLN) (human, UniProt Q13421 296-580, limits assumed).
T1 construct: Antigen of the Octet KD values
Description: BLI (Octet), multiple concentrations, bsAb in 1+1 Fab-scFv-Fc format; lower table, column 'human MSLN (M)'.

Assay [2] addresses T2, MSLN on OVCAR8 cells (~90K MSLN antigens/cell) (UniProt Q13421 296-598). Kind of assay: binding to OVCAR8 cells, MFI APC against mAb concentration.
Assay [3] deals with T1, human mesothelin (MSLN). Description: BLI (Octet), bsAb in 1+1 Fab-scFv-Fc format.
For assay [4], the target named is T1, human mesothelin (MSLN). Description: KD quoted in the FIG. 25 legend; Octet (BLI) per FIGS. 20-21.
Assay [5] has as its target T2, MSLN on OVCAR8 cells (~90K MSLN …). Description: binding to OVCAR8 cells, MFI APC against mAb concentration. This is another data set of the same source.
Assay [6] has the same target. Described as above. The source holds these as a separate data set.
Assay [7] deals with T3, MSLN on OVCAR8 cells (~90K MSLN antigens/cell) (UniProt Q13421 296-598).
T3 construct: whole, on cells; Endogenous expression on a cancer cell line
Kind of assay: flow cytometry on OVCAR8 cells, 1 h at 4 C, anti-human-Fc A647 secondary. On the procedure:
(§1) In this experiment, 50,000 OVCAR8 cells (˜90K MSLN antigens/cell) were seeded per well in a plate. Anti-human-Fc secondary (A647) was added for 30 min at 4° C., and binding was assessed via FACs. FIG. 39C depicts that the CD28×MSLN bsAbs in neither 1+1-Fab-scFv format nor the 2+1 mAb-scFv format antibodies show any significant off target binding. In this experiment, 50,000 SKOV3 cells (˜9K MSLN antigens/cell) were seeded per well in a plate. Anti-human-Fc secondary (A647) was added for 30 min at 4° C., and binding was assessed via FACs.
(§2) In order to assess the binding of MSLN×CD28 bsAbs in different formats, an experiment was conducted in which 50,000 OVCAR8 cells (˜90K MSLN antigens/cell) were seeded per well in a plate. Anti-human-Fc secondary (A647) was added for 30 min at 4° C., and binding was assessed via FACs.

The next assay deals with T4, human CD28 (human, UniProt P10747 19-152, limits assumed).
T4 construct: also called Cluster of Differentiation 28; Tp44
Kind of assay: label in the legend box: nominal affinity of the CD28 binding domain (paragraph 422 calls such label values KD); method not stated on the sheet.

Assay [8] has as its target T3, MSLN on OVCAR8 cells (~90K MSLN …). Kind of assay: flow cytometry on OVCAR8 cells, 1 h at 4 C, anti-human-Fc A647 secondary. On the procedure: as §1, §2
The source holds these as a separate data set.

Assay [9] deals with T1, human mesothelin (MSLN). Description: label in the legend box: nominal affinity of the MSLN binding domain (paragraph 422 calls such label values KD); method not stated on the sheet.

Where a chain is given by its changes, count along the chain named.

The values that follow come from US20230340128A1 (Xencor, published 2023).

B1: XENP32562 (bispecific antibody)
chain 1: QVQLVQSGAEVKKPGASVKVSCKASGYTFTSYWMHWVRQAPGQGLEWMGMIHPNSDNTIYYEKFQGRVTMTVDKSISTAYMELSRLRSDDTAVYYCAIIITPVVPKFDYWGQGTLVTVSSASTKGPSVFPLAPSSKSTSGGTAALGCLVKDYFPEPVTVSWNSGALTSGVHTFPAVLQSSGLYSLSSVVTVPSSSLGTQTYICNVNHKPSDTKVDKKVEPKSCDKTHTCPPCPAPPVAGPSVFLFPPKPKDTLMISRTPEVTCVVVDVKHEDPEVKFNWYVDGVEVHNAKTKPREEEYNSTYRVVSVLTVLHQDWLNGKEYKCKVSNKALPAPIEKTISKAKGQPREPQVYTLPPSREEMTKNQVSLTCDVSGFYPSDIAVEWESDGQPENNYKTTPPVLDSDGSFFLYSKLTVDKSRWEQGDVFSCSVMHEALHNHYTQKSLSLSPGK
chain 2: not shown
chain 3: DIVMTQSPDSLAVSLGERATINCKASHDVLTSVAWYQQKPGQSPKLLIYWASTRHTGVPDRFTGSGSGTDFTLTISSLQAEDVAVYFCQQYSSYPLTFGAGTKLEIKRTVAAPSVFIFPPSDEQLKSGTASVVCLLNNFYPREAKVQWKVDNALQSGNSQESVTEQDSKDSTYSLSSTLTLSKADYEKHKVYACEVTHQGLSSPVTKSFNRGEC
As to B1, the Kd in the assay with human mesothelin (MSLN) [1] turned out to be 0.74 nM. Also, the 50% effective concentration (EC50 (read off the curve)) in [2] is roughly 0.2 µg/mL. In the assay with human mesothelin (MSLN) [3], this molecule displayed a Kd of 0.628 nM, a Response of 1.01, an off-rate constant (koff) of 0.000409 s⁻¹ and a kon of 651000 M⁻¹ s⁻¹.

B2: XENP32748 (bispecific antibody)
chain 1: B1 chain 1
chain 2: QVQLVQSGAEVKKPGASVKVSCKASGYTFTSYWMHWVRQAPGQGLEWMGMIHPNSDNTIYYEKFQGRVTMTVDKSISTAYMELSRLRSDDTAVYYCAIIITPVVPKFDYWGQGTLVTVSSASTKGPSVFPLAPSSKSTSGGTAALGCLVKDYFPEPVTVSWNSGALTSGVHTFPAVLQSSGLYSLSSVVTVPSSSLGTQTYICNVNHKPSNTKVDKKVEPKSCGGGGSGGGGSQAVVTQEPSLTVSPGGTVTLTCGSSTGAVTTSNYANWVQQKPGKSPRGLIGGTNKRAPGVPARFSGSLLGGKAALTISGAQPEDEADYYCALWYSNHWVFGGGTKLTVLGKPGSGKPGSGKPGSGKPGSEVQLVESGGGLVQPGGSLRLSCAASGFTFSTYAMNWVRQAPGKGLEWVGRIRSKANNYATYYADSVKGRFTISRDDSKNTLYLQMNSLRAEDTAVYYCVRHGNFGDSYVSWFAYWGQGTLVTVSSGGGGSGGGGSKTHTCPPCPAPPVAGPSVFLFPPKPKDTLMISRTPEVTCVVVDVKHEDPEVKFNWYVDGVEVHNAKTKPREEQYNSTYRVVSVLTVLHQDWLNGKEYKCKVSNKALPAPIEKTISKAKGQPREPQVYTLPPSREQMTKNQVKLTCLVKGFYPSDIAVEWESNGQPENNYKTTPPVLDSDGSFFLYSKLTVDKSRWQQGNVFSCSVMHEALHNHYTQKSLSLSPGK
chain 3: B1 chain 3
On to B2, for which the “EC50 (read off the curve)” value in assay [2] was roughly 0.04 µg/mL. In the assay with human mesothelin (MSLN) [4], the Kd worked out at 0.74 nM.

B3: XENP32751 (bispecific antibody)
chain 1: B1 chain 1
chain 2: B2 chain 2
chain 3: B1 chain 3 with L30G, S32Y
Regarding B3, the concentration for a half-maximal effect (EC50 (read off the curve)) in [5] was roughly 0.05 µg/mL. The dissociation constant Kd with human mesothelin (MSLN) [4] was roughly 12.8 nM.

B4: XENP32852 (bispecific antibody)
chain 1: B1 chain 1
chain 2: B2 chain 2
chain 3: B1 chain 3 with L30G, S92Y
In the assay with human mesothelin (MSLN) [4], B4 came in with a Kd of 3.9 nM. The “EC50 (read off the curve)” value in assay [6] is roughly 0.06 µg/mL.

B5: XENP32853 (bispecific antibody)
chain 1: B1 chain 1
chain 2: QVQLVQSGAEVKKPGASVKVSCKASGYTFTSYWMHWVRQAPGQGLEWMGMIHPNSDNTIYYEKFQGRVTMTVDKSISTAYMELSRLRSDDTAVYYCAIIITPVVPKFDYWGQGTLVTVSSASTKGPSVFPLAPSSKSTSGGTAALGCLVKDYFPEPVTVSWNSGALTSGVHTFPAVLQSSGLYSLSSVVTVPSSSLGTQTYICNVNHKPSNTKVDKKVEPKSCGGGGSGGGGSQAVVTQEPSLTVSPGGTVTLTCGSSTGAVTTSNYANWVQQKPGKSPRGLIGGTNKRAPGVPARFSGSLLGGKAALTISGAQPEDEADYYCALWYSNHWVFGGGTKLTVLGKPGSGKPGSGKPGSGKPGSEVQLVESGGGLVQPGGSLRLSCAASGFTFSTYAMNWVRQAPGKGLEWVGRIRSKYNNYATYYADSVKGRFTISRDDSKNTLYLQMNSLRAEDTAVYYCVRHGNFGDEYVSWFAYWGQGTLVTVSSEPKSSDKTHTCPPCPAPPVAGPSVFLFPPKPKDTLMISRTPEVTCVVVDVKHEDPEVKFNWYVDGVEVHNAKTKPREEQYNSTYRVVSVLTVLHQDWLNGKEYKCKVSNKALPAPIEKTISKAKGQPREPQVYTLPPSREQMTKNQVKLTCLVKGFYPSDIAVEWESNGQPENNYKTTPPVLDSDGSFFLYSKLTVDKSRWQQGNVFSCSVMHEALHNHYTQKSLSLSPGK
chain 3: B1 chain 3 with L30G, S92Y
In the assay with human mesothelin (MSLN) [4], B5 displayed a dissociation constant (Kd) of 3.9 nM. The “EC50 (read off the curve)” value in assay [6] was roughly 0.06 µg/mL.

B6: XENP39566 (bispecific antibody)
heavy: B1 chain 1 with M50W, M430L, N436S
scFv-Fc: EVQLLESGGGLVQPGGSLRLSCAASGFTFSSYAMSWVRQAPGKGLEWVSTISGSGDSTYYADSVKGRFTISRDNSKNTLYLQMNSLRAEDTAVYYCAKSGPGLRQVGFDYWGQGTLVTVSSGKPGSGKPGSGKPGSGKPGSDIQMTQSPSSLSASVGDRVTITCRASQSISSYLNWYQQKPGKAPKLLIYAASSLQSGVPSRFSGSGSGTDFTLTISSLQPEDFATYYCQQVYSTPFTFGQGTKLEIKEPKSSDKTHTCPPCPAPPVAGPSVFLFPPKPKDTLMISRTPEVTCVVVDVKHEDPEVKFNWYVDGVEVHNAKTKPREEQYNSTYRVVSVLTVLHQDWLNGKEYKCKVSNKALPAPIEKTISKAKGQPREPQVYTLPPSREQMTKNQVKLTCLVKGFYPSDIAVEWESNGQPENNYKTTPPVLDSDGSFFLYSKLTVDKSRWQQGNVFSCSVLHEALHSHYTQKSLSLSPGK
light: B1 chain 3 with L30G
notes: also called XENP39566 MSLN (9 nM) x CD28 (180 nM) 1+1 Fab-scFv-Fc
For the molecule B6, the “EC50 (read off the curve)” value in assay [7] and in assay [8] was roughly 4 µg/mL throughout. Moreover, the figures for the Kd with human CD28 and in the assay with human mesothelin (MSLN) [9] were 180 nM and 9 nM, respectively.

B7: XENP39554 (bispecific antibody)
heavy: B1 chain 1 with M430L, N436S
scFv-Fc: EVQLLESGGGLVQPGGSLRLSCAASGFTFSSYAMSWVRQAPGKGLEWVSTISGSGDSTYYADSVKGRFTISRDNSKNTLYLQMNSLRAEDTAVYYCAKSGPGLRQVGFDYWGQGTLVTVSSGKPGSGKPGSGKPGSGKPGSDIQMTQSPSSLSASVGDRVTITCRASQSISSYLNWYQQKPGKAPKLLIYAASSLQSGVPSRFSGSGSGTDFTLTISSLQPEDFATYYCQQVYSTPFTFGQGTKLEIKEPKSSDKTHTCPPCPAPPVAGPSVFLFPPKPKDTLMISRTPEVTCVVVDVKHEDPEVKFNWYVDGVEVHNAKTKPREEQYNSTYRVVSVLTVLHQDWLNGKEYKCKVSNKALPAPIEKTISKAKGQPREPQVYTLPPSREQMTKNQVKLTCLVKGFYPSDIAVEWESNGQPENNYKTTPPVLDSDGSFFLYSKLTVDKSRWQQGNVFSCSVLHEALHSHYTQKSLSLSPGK
light: B1 chain 3 with L30G
notes: also called XENP39554 MSLN (0.3 nM) x CD28 (180 nM) 1+1 Fab-scFv-Fc
Regarding B7, the concentration for a half-maximal effect (EC50 (read off the curve)) in assay [7] and in assay [8] was roughly 0.01 µg/mL throughout. In addition, the figures for the Kd with human CD28 and with human mesothelin (MSLN) [9] were 180 nM and 0.3 nM, respectively.
